Key:
[1] = test system: MS2 coat protein; assay: apparent KD of MS2 coat protein, switch ON state; designed switch direction (-1 OFF switch, 1 ON switch): -1; higher = weaker reporter binding; conditions: FMN input: 0 or 200 uM; Eterna round: R93 (includes R88 designs)
In short: (§1)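 Apparent KD stands for the median, per design, of fits to normalised cluster binding curves. The curves came from titrating on-chip-transcribed RNA switches on Illumina sequencing clusters with SNAP-549-labelled MS2 coat protein, twofold from 0.7 or 1.5 nM to 3 µM. Buffer was 100 mM Tris-HCl pH 7.5, 80 mM KCl, 4 mM MgCl2, without or with constant ligand.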

[2] = test system: MS2 coat protein; assay: apparent KD of MS2 coat protein, switch OFF state (with FMN for OFF switches, without FMN for ON switches); designed switch direction (-1 OFF switch, 1 ON switch): -1; higher = weaker reporter binding; conditions: FMN input: 0 or 200 uM; Eterna round: R93 (includes R88 designs)
In short: as §1

Sequence	apparent KD of MS2 coat protein [1] [nM]	apparent KD of MS2 coat protein [2] [nM]
AAGAAGAGAGGAUAUACAUGAGGAUCACCCAUGUAAAAGAAAGAAAAGGGAAAGAAAAGUAGAAGGCUCAAGAA [Aakheperrure Amenhotep II]	26.4	38.3
CUCUUGUAAGGAUAUAAAUGAAAAGAAGUGAAAGAAAAGAAUUAGAAGGUACAUGAGGAUCACCCAUGUUAGAA [EteRNA is fun!]	22.1	18.5
AAAUUGUCAGGAUAUCUUAGAACUGUCAAAGACAGGAGCUAAGAGAAGGGACAUGAGGAUCACCCAUGUAAAAC [May 90]	64	88.5
AGCUAGUCAGGAUAUACGAACAUGUCAAAAGACGUGAAUAAACAUGAGGAUCACCCAUGUAGAAGGGACUAGCA [Mat - Exclusion 2 - JL-Eli mod - D53]	18.3	14.8
AAUUAGGUAGGAUAUACAUGAGGAUCACCCAUGUGGAAAAAAAACUACGAAAAAGAAUGUAGAAGGACCUAAAA [Ex 3 Frozen]	18.8	21.9
AAGUUACAUGAGGAUCACCCAUGUGAGGAUAUGUGUAUCCCUAAAAAAGUGUGGGACCACAGAAGGUACUUGGA [Mod 2 of Atanri by ViennaUCT, Round 1]	42.9	44.5
AGCUAGCAAGGAUAUACGAACAUGUCAAAAGACGUGAAGGGACAUGAGGAUCACCCAUGUAGAAGGUGCUAGCA [JL 74% mod 8]	36.6	127
AUAAUGAGAGGAUAUACAUGAGGAUCACCCAUGUAAUUAACACGGCGAGCACCAAUACGUAGAAGGCUCAUUUA [JR_Exc003+Sub602]	22.4	49.9
AAAAAUGGAGGAUAUACAUGAGGAUCACCCAUGUGAAACAAAACAAAACACAAAAAAAGUAGAAGGCCAAAAAA [Gilly Gone Silly 4 - Jieux - Exclusion 3]	33.1	38.2
CAGUACUGAGGAUAUACAUGAGGAUCACCCAUGUAAAAAACCUACGAAAGUAGGAAAUGUAGAAGGCAGUACUG [Ex3: 803]	16.4	22.2
AGUCAUACAGGAUAUACAUGAGGAUCACCCAUGUAUAUCCAAAAAAGGUGAUCCUCAUGUAGAAGGGUAUGACA [EX3 202: Super Stable 2]	13.7	26.9
AACAAUACAGGAUAUACAUGAGGAUCACCCAUGUGAGAAUUAAGUGGCGUACCACAAGGUAGAAGGGUAAUGGA [Ruby 2]	22.4	34.7
AAAAAACAUGAGGAUCACCCAUGUGAGGAUAUGAACGAAAAUAAAUAAAAAUAAAAGUUCAGAAGGUACGAAAA [66%, Wbt, 3]	25.2	30.7
AGGAUGUCAGGAUAUGUGUAAAGAAUAAAACAAAUAACAACACAGAAGGGACAUGAGGAUCACCCAUGUUACCA [May 37]	19.9	20.9
AAAAAACAUGAGGAUCACCCAUGUGAGGAUAUGAUGCGAAUAAAGAAAGAAGAAAGCAUCAGAAGGCACACCAA [58%, Disencluded 3, 1]	29.4	52
AAACCACAUGAGGAUCACCCAUGUCAGGAUAUGCUAUGGAAAAAUAAAAUAAAACAUAGCAGAAGGGACAAAAA [Mat - Exclusion 1 - Eli mod - D34]	31.1	52
UCCAGACAUGAGGAUCACCCAUGUCAGGAUAUCUACAGAACCUCAUGUAAAAAACUGUAGAGAAGGGAUAUGAA [Design 97: Pseudoknot G]	16.7	16
CAAAGGUGAGGAUAUACAUAACUAUGACGAAAGUCAUAAACACAUGAGGAUCACCCAUGUAGAAGGCACCACAA [e2]	32.6	29.9
AAUGAUUUAGGAUAUACAUGAGGAUCACCCAUGUUCAAAUCGUGGGUCAGGUGAGAAGGUAGAAGGAAAUCACU [Soberior]	113	185
AGAAUACAUGAGGAUCACCCAUGUAAGGAUAUGUGAAGAAAAAGAAAAGAAAAGAAACACAGAAGGUACAAAAG [EX 1 May 18]	30	65.8
AAGGGACAUGAGGAUCACCCAUGUCAGGAUAUGCUAUGGAAAAAUAAAAUAAAACAUAGCAGAAGGGAUAAAAA [Mat - Exclusion 1 - Eli mod - D32]	23	51.1
AACAUGUAAGGAUAUGAAAGAAAAGAAAAGAAAGAAAAGAAUCAGAAGGUACAUGAGGAUCACCCAUGUAAGAA [EteRNA is fun!]	34.7	26.7
AAAGGACGAGGAUAUACAUGAGGAUCACCCAUGUAAAAAACAUAAUAAAAGAAUAUAUGUAGAAGGCGUCCAAA [Ruby 59]	18.7	17.8

Sequence	apparent KD of MS2 coat protein [1] [nM]	apparent KD of MS2 coat protein [2] [nM]
AGUUGGCGAGGAUAUACAUGAGGAUCACCCAUGUAAAAUAAAUAAAAAAUAAAGGGAAGUAGAAGGCGCUGACA [73%, Moding Norbert Elias, 15]	41.8	77
GGCACUGUAGGAUAUACAUGAACAAUUGGCAUCCUCAGUCCACAUGAGGAUCACCCAUGUAGAAGGAUAGAAAA [Besorees]	131	91.1
CUCUUGUGAGGAUAUGAAAGAAAAGAAGAGAAAGAAAAGAAUCAGAAGGCACAUGAGGAUCACCCAUGUAAGAA [EteRNA is fun!]	27.4	106
AAACUACUAGGAUAUACAACGGUGUCCUAACUACUAAGAAAACAUGAGGAUCACCCAUGUAGAAGGAGUAAUAA [Cearused]	35.8	78.2
AAAUGACAUGAGGAUCACCCAUGUCAGGAUAUGACUUGAAAAAAAAAAAAAAAACAUGUCAGAAGGGACAUGGG [Design 50: Sub-opt FB]	15.7	9.45
AACUAACAUGAGGAUCACCCAUGUCAGGAUAUGCAAAGAACGAUCGAACGAACGAUAAGCAGAAGGGACAAAAA [Amethyst 96]	29.8	42.1
AAACUGGUAGGAUAUGCUAGGGCGAUUAAUACGCCGAUAGUACAUGAGGAUCACCCAUGUAGAAGGGCCAGAAA [Mat - Exclusion 2 - JL mod - D65]	30.8	23.6
AAGAAGUGAGGAUAUACAUGAGGAUCACCCAUGUAAAAGAAAGAAAAGGGAAAGAAAAGUAGAAGGCACAAGAA [Maatkare Hatshepsut]	36.2	58.3
AUCUUGUGAGGAUAUGCAUGAAAUGAAGUGAAAGAAAAGAAGCAGAAGGCACAUGAGGAUCACCCAUGUUAGAA [EteRNA is fun!]	33.5	62.2
UCGAUGUCAGGAUAUGUGUAAAGAAUAAAACAAAUAACAACACAGAAGGGACAUGAGGAUCACCCAUGUUACGA [May 42]	42.2	86.2
AAAAAACAUGAGGAUCACCCAUGUGAGGAUAUGCAAAAGAAAAGAAAAGAAAGAAGAAGCAGAAGGCACAAGAA [Djedefra]	29.4	36.8
AAAAAACAUGAGGAUCACCCAUGUGAGGAUAUCGGUAGUGAGGCUAUAGUGUCAAUAGUGAGAAGGCACAUAAA [Brourd 613 Mod 12 - Jieux - Exclusion 1]	31.1	29.2
AAAAAGAUAGGAUAUACGUACAUGUCAAAAGACGUGAAGGGACAUGAGGAUCACCCAUGUAGAAGGAUUAAAAA [JL Wide Open 40]	31.6	20.1
AAGAACUCAGGAUAUGCUAAAGAAAUAAAAAUAAAUAAAGAACAUGAGGAUCACCCAUGUAGAAGGGAGAAGAA [Merkawre Sobekhotep VII]	76.4	46.2
AGCAAACAUGAGGAUCACCCAUGUCAGGAUAUGAACGAAAAUAAAUAAAAAUAAAAGUUCAGAAGGGACGAGCA [66%, Wbt, 25]	43.2	50.1
AAAAAGGGAGGAUAUACAUGAGGAUCACCCAUGUAAAAAAAAACAAAAAAAAAAAAAAGUAGAAGGCCCAAAAA [here you go]	52.3	37.5
AAGAAGUCAGGAUAUCGAAGACAGACGAAAAGUCUGUCAAACGAGAAGGGACAUGAGGAUCACCCAUGUAAAGA [Mat - Exaclusion 4 - Eli mod - D73]	63.1	61
ACAAACCAAGGAUAUACAUGAGGAUCACCCAUGUGUUCGGCGUUUAGCAUGGGCAGCAGUAGAAGGUGGAGAAA [Dilareat]	37.4	93.1
AAAAGCAGAGGAUAUACAUAAUUAUGACGAAAGUCAUAAAAACAUGAGGAUCACCCAUGUAGAAGGCUGCAAAA [MOD of Meechl's MS2 Ex2 (MS2 riboswitches - Exlclusion 2)]	24.9	28.1
AAAAAACAUGAGGAUCACCCAUGUGAGGAUAUCUGAAAAAAAAAAAAAAAAAAGAAAAAGAGAAGGCGCAAAGA [Ex 1 #2]	38	35.1
AAGAGUAGAGGAUAUACGGGAAAAGAGUCGAAAGACUCAAAACAUGAGGAUCACCCAUGUAGAAGGCUACUCAA [Hyphema Seclusion Mod 62% 6]	87.7	102
AAGAAGGGAGGAUAUACAAAAUAAAAGAAAAGAAAGAAAGAACAUGAGGAUCACCCAUGUAGAAGGCUCAAGAA [Mersekhemre Ined]	37.2	24.9

Source: the supplement of paper PMC9170038
